Assay results published in patent US20190330315A1 (IMAGO PHARMACEUTICALS, published 2019).
Where no end group is shown, it is not given here.

Biological target: T1, Peptide 2: α-synuclein amino acids 108-117 (10 amino acids) PQEGILEDMP (human, also: biotin, position not given here)
T1 construct: Biotinylated peptide loaded on streptavidin biosensors
T1 peptide: PQEGILEDMP
Assay: BLI (ForteBio Octet Red96), biotinylated peptide on streptavidin biosensors, IGP101 at multiple concentrations
Protocol: The binding of IGP101 to two biotinylated α-synuclein peptides (SEQ ID NO:10 and SEQ ID NO:11) was determined using the Streptavidin biosensors. Biotinylated peptides were loaded at 5 μg/ml for 700 seconds, 300 seconds for baseline recording and then IGP101 association and dissociation measured for 600 seconds each at multiple concentrations. Double reference sensors were employed in all testing to measure and subtract any observed background signal from nonspecific binding or system noise.
Analysis was performed with ForteBio Data Analysis Software (v8.2). After background subtraction, a 1:1 local kinetic model was fit to the observed association and dissociation curves. Overall KD, Kₒₙ, Koff, and R2 correlation coefficients were determined. Where possible, a global curve fit was also performed for multiple concentrations of the antibody/analyte.

- binding result: no binding
B1: IGP101 (antibody, V domains shown)
VH: EVQLVESGGGLVQPKGTLKLSCAASGFSFNTYAMNWVRQAPGKSLEWVARTLSKSNNYATYYADSVKDRFTISRDDSQSMLSLQMNNLKTEDTAMYYCVGAFAYWGQGTLVTVSA
VL: DIVMTQAAPSVPVTPGESVSISCRSSKSLLHSNGNTYLYWFLQRPGQSPQLLIYRMSNLASGVPDRFSGSGSGTAFTLRISRVEAEDVGVYYCMQHLEFPFTFGAGTKLELK
notes: Mouse monoclonal antibody from hybridoma ATCC PTA-9197; It was tested as whole mouse IgG, captured on anti-mouse IgG biosensors; The constant regions and isotype are not explicitly stated; a g2b constant region primer is mentioned only in illustrative cloning methods; also called IGP101 antibody; mouse monoclonal antibody IGP101
